Tested on: MS2 coat protein
Assay: apparent KD of MS2 coat protein; designed switch direction (-1 OFF switch, 1 ON switch): 1; higher = weaker reporter binding
Procedure, shortened: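 Each step of the titration lasted 0.8–1.5 h at the lowest concentration and 10–20 min at the highest. The protein, SNAP-549-labelled MS2 coat protein, went from 0.7 or 1.5 nM doubling to 3 µM over RNA switches transcribed on Illumina chips by stalled E. coli RNA polymerase. Normalised cluster fluorescence was curve-fitted, and the per-design median over clusters is given as apparent KD.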

[1] = input ligand: microRNA oligo, concentration not stated
[2] = Eterna round: R95, input ligand: FMN 200 uM
[3] = Eterna round: R95, input ligand: microRNA oligo, concentration not stated
[4] = Eterna round: R95, input ligand: none

Row | Sequence | apparent KD of MS2 coat protein (input ligand: FMN 200 uM) | apparent KD of MS2 coat protein [1] | apparent KD of MS2 coat protein (input ligand: none) | apparent KD of MS2 coat protein [2] | apparent KD of MS2 coat protein [3] | apparent KD of MS2 coat protein [4]
1 | AGCUAGUACCGAGGAUAUACGUACAUGAGGAUCACCCAUGUAUACAUGAUUAAAUGAGACUACAUGUAGAAGGCGGUACUAGCA [Mat - Same State NG 2 - JL mod - D48] (Eterna round: R96, puzzle: Same State NG 2) | 15 nM | 27.1 nM | 48.1 nM |  |  | 
2 | AGCUAUCGAAAACGAUAGCAAAAGCAUGUACAUGAGGAUCACCCAUGUCAUGUACAAGCUUUUUGCUCGUCUUAAAA [JL zipper 23] (Eterna round: R96, puzzle: Sensor for hsa-mir-208a) | 919 nM | 14.3 nM | 1000 nM |  |  | 
3 | AGCUAUCGAAAACGAUAGCAAAAGCAUGUACAUGAGGAUCACCCAUGUCAUGUAUAAGCUUUUUGCUCGUCUUAAAA [Zipper 23 - 12] (puzzle: Sensor for hsa-mir-208a) |  |  |  | 42.7 nM | 9.86 nM | 34.4 nM
4 | AGCUAUCGAAAACGAUAGCAAAAGCAUGUACAUGAGGAUCACCCAUGUCAUGUGCAAGCUUUUUGCUCGUCUUAAAA [Zipper 23 - 4] (puzzle: Sensor for hsa-mir-208a) |  |  |  | 163 nM | 10.7 nM | 208 nM
5 | AGCUAUUAAUCAGGAUAUGGUCACAUGAGGAUCACCCAUGUAUCGAUGAUAUGAUGUGGUCAAUACUAGAAGGGAUUGCUAACA [SameState NG2 #64] (Eterna round: R96, puzzle: Same State NG 2) | 180 nM | 104 nM | 152 nM |  |  | 
6 | AGGCCAUCAGGAGGAUAUGGCACCUUAUUGGUGCCAGAAGGUCUAACAUGAGGAUCACCCAUGUGGGUGUGGUCGAAAGACCAC [Fiskers NG1(ss) - 5] (Eterna round: R96, puzzle: Same State NG 1) | 99.9 nM | 71.2 nM | 98 nM |  |  | 
7 | AGGCUGAGUCGAGGAUAUUAUGGAUCCUCUAAUACAUGAGGAUCACCCAUGUAAUUAAUUAUACAUGAGAAGGCGACUCAGCCU [SSNG2/12-A4] (Eterna round: R96, puzzle: Same State NG 2) | 533 nM | 15 nM | 34.7 nM |  |  | 
8 | AGGUAACAUGAGGAUCACCCAUGUAAGGUGAACGUAGGAUAUCGAAGAGGUAGAGUAGGACGAGAAGGACGAGGAA [JR_SS1_Sub091] (puzzle: Same State 1) |  |  |  | 218 nM | 239 nM | 414 nM
9 | AGUAGUGUAACAUGAGGAUCACCCAUGUAAGAAGAUGUAACCUAGGAUAUGGAUGUUAUGUUUGACCAGAAGGAGGAUUGUUUA [JR_SSNG3_Sub040] (Eterna round: R96, puzzle: Same State NG 3) | 22.6 nM | 32.1 nM | 37.1 nM |  |  | 
10 | AGUAUACAUGAGGAUCACCCAUGUCAACGUAGUCGAGGAUAUGGGCAGCCGUGAGGCGUACCAGAAGGCGAAGAGA [Mat - Same State 1 - Mod of JL - D5] (puzzle: Same State 1) |  |  |  | 24.5 nM | 50.5 nM | 68.6 nM
11 | AGUCCAGCCAAAGCUGGACAAAAGCAUGUACAUGAGGAUCACCCAUGUCAUGUACAAGCUUUUUGCUCGUCUUAAUA [Mat - hsa-mir-208a - Mod of JL - D38] (puzzle: Sensor for hsa-mir-208a) |  |  |  | 464 nM | 16 nM | 611 nM
12 | AGUCCAGCCUGAGCUGGACAAAAGCAUGUACAUGAGGAUCACCCAUGUCAUGUACAAGCUUUUUGCUCAAAAUAAUA [Mat - hsa-mir-208a - Mod of JL - D33] (puzzle: Sensor for hsa-mir-208a) |  |  |  | 957 nM | 14.8 nM | 607 nM
13 | AGUCCAGCCUGAGCUGGACAAAAGCAUGUACAUGAGGAUCACCCAUGUCAUGUACAAGCUUUUUGCUCGUCAUAAUA [Mat - hsa-mir-208a - Mod of JL - D28] (puzzle: Sensor for hsa-mir-208a) |  |  |  | 653 nM | 14.9 nM | 710 nM
14 | AGUCCAGCCUGAGCUGGACAAAAGCAUGUACAUGAGGAUCACCCAUGUCAUGUACAAGCUUUUUGCUCGUCUUAGAA [Mat - hsa-mir-208a - Mod of JL - D26] (puzzle: Sensor for hsa-mir-208a) |  |  |  | 624 nM | 16.7 nM | 756 nM

Source: the supplement of paper PMC9170038
